Assay results taken from patent publication US20170342144A1 (Sanofi, published 2017).
Where two headings read alike, the source gives them in different places.

Key:
Assay in all cases: Biacore, immobilised TGFβ
human TGFβ3 [1] = target: T1, human TGFβ3 (human, UniProt P10600 301-412)
T1 sequence: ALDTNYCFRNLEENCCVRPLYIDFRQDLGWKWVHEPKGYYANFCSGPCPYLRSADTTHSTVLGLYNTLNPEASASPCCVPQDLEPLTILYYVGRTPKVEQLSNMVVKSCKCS

human TGFβ1 [2] = target: T2, human TGFβ1 (human, UniProt P01137 279-390)
T2 construct: also called TGFβ1 homodimer

human TGFβ2 [3] = target: T3, human TGFβ2 (human, UniProt P61812 303-414)
T3 construct: also called TGFβ2 homodimer
T3 sequence: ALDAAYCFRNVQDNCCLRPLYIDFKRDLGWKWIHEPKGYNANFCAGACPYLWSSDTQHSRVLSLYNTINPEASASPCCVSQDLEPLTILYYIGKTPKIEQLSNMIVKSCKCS

human TGFβ3 [4] = target: T1, human TGFβ3; remark: listed apart in the source
human TGFβ1 [5] = target: T2, human TGFβ1; remark: listed apart in the source
human TGFβ2 [6] = target: T3, human TGFβ2; remark: listed apart in the source

Measured: binding result

T2 sequence (P01137 279-390 limits assumed): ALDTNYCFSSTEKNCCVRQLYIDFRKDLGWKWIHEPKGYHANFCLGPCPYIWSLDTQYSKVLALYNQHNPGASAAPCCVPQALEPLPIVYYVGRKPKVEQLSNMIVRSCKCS

B1: A93R(LC) (antibody, V domains shown)
VH: QVQLVQSGAEVKKPGSSVKVSCKASGYTFSSNVISWVRQAPGQGLEWMGGVIPIVDIANYAQRFKGRVTITADESTSTTYMELSSLRSEDTAVYYCASTLGLVLDAMDYWGQGTLVTVSS
VL: ETVLTQSPGTLSLSPGERATLSCRASQSLGSSYLAWYQQKPGQAPRLLIYGASSRAPGIPDRFSGSGSGTDFTLTISRLEPEDFAVYYCQQYRDSPITFGQGTRLEIK
notes: GC1008 IgG4 variant, light chain substitution
no binding (tested: 50 nM): human TGFβ3 [1] | human TGFβ1 [2] | human TGFβ2 [3]

B2: I52E (antibody, V domains shown)
VH: QVQLVQSGAEVKKPGSSVKVSCKASGYTFSSNVISWVRQAPGQGLEWMGGVEPIVDIANYAQRFKGRVTITADESTSTTYMELSSLRSEDTAVYYCASTLGLVLDAMDYWGQGTLVTVSS
VL: ETVLTQSPGTLSLSPGERATLSCRASQSLGSSYLAWYQQKPGQAPRLLIYGASSRAPGIPDRFSGSGSGTDFTLTISRLEPEDFAVYYCQQYADSPITFGQGTRLEIK
notes: GC1008 IgG4 variant
no binding (tested: 50 nM): human TGFβ3 [4] | human TGFβ1 [5] | human TGFβ2 [6]

B3: L104K (antibody, V domains shown)
VH: QVQLVQSGAEVKKPGSSVKVSCKASGYTFSSNVISWVRQAPGQGLEWMGGVIPIVDIANYAQRFKGRVTITADESTSTTYMELSSLRSEDTAVYYCASTLGLVKDAMDYWGQGTLVTVSS
VL: ETVLTQSPGTLSLSPGERATLSCRASQSLGSSYLAWYQQKPGQAPRLLIYGASSRAPGIPDRFSGSGSGTDFTLTISRLEPEDFAVYYCQQYADSPITFGQGTRLEIK
notes: GC1008 IgG4 variant
no binding (tested: 50 nM): human TGFβ3 [1] | human TGFβ1 [2] | human TGFβ2 [3]

B4: I52D (antibody, V domains shown)
VH: QVQLVQSGAEVKKPGSSVKVSCKASGYTFSSNVISWVRQAPGQGLEWMGGVDPIVDIANYAQRFKGRVTITADESTSTTYMELSSLRSEDTAVYYCASTLGLVLDAMDYWGQGTLVTVSS
VL: ETVLTQSPGTLSLSPGERATLSCRASQSLGSSYLAWYQQKPGQAPRLLIYGASSRAPGIPDRFSGSGSGTDFTLTISRLEPEDFAVYYCQQYADSPITFGQGTRLEIK
notes: GC1008 IgG4 variant
no binding (tested: 50 nM): human TGFβ3 [4] | human TGFβ1 [5] | human TGFβ2 [6]

B5: I52W (antibody, V domains shown)
VH: QVQLVQSGAEVKKPGSSVKVSCKASGYTFSSNVISWVRQAPGQGLEWMGGVWPIVDIANYAQRFKGRVTITADESTSTTYMELSSLRSEDTAVYYCASTLGLVLDAMDYWGQGTLVTVSS
VL: ETVLTQSPGTLSLSPGERATLSCRASQSLGSSYLAWYQQKPGQAPRLLIYGASSRAPGIPDRFSGSGSGTDFTLTISRLEPEDFAVYYCQQYADSPITFGQGTRLEIK
notes: GC1008 IgG4 variant
no binding (tested: 50 nM): human TGFβ3 [4] | human TGFβ1 [5] | human TGFβ2 [6]

B6: V103R (antibody, V domains shown)
VH: QVQLVQSGAEVKKPGSSVKVSCKASGYTFSSNVISWVRQAPGQGLEWMGGVIPIVDIANYAQRFKGRVTITADESTSTTYMELSSLRSEDTAVYYCASTLGLRLDAMDYWGQGTLVTVSS
VL: ETVLTQSPGTLSLSPGERATLSCRASQSLGSSYLAWYQQKPGQAPRLLIYGASSRAPGIPDRFSGSGSGTDFTLTISRLEPEDFAVYYCQQYADSPITFGQGTRLEIK
notes: GC1008 IgG4 variant
no binding (tested: 50 nM): human TGFβ3 [1] | human TGFβ1 [2] | human TGFβ2 [3]

B7: V55K (antibody, V domains shown)
VH: QVQLVQSGAEVKKPGSSVKVSCKASGYTFSSNVISWVRQAPGQGLEWMGGVIPIKDIANYAQRFKGRVTITADESTSTTYMELSSLRSEDTAVYYCASTLGLVLDAMDYWGQGTLVTVSS
VL: ETVLTQSPGTLSLSPGERATLSCRASQSLGSSYLAWYQQKPGQAPRLLIYGASSRAPGIPDRFSGSGSGTDFTLTISRLEPEDFAVYYCQQYADSPITFGQGTRLEIK
notes: GC1008 IgG4 variant
no binding (tested: 50 nM): human TGFβ3 [4] | human TGFβ1 [5] | human TGFβ2 [6]

B8: I52G (antibody, V domains shown)
VH: QVQLVQSGAEVKKPGSSVKVSCKASGYTFSSNVISWVRQAPGQGLEWMGGVGPIVDIANYAQRFKGRVTITADESTSTTYMELSSLRSEDTAVYYCASTLGLVLDAMDYWGQGTLVTVSS
VL: ETVLTQSPGTLSLSPGERATLSCRASQSLGSSYLAWYQQKPGQAPRLLIYGASSRAPGIPDRFSGSGSGTDFTLTISRLEPEDFAVYYCQQYADSPITFGQGTRLEIK
notes: GC1008 IgG4 variant
no binding (tested: 50 nM): human TGFβ3 [4] | human TGFβ1 [5] | human TGFβ2 [6]

B9: I52Q (antibody, V domains shown)
VH: QVQLVQSGAEVKKPGSSVKVSCKASGYTFSSNVISWVRQAPGQGLEWMGGVQPIVDIANYAQRFKGRVTITADESTSTTYMELSSLRSEDTAVYYCASTLGLVLDAMDYWGQGTLVTVSS
VL: ETVLTQSPGTLSLSPGERATLSCRASQSLGSSYLAWYQQKPGQAPRLLIYGASSRAPGIPDRFSGSGSGTDFTLTISRLEPEDFAVYYCQQYADSPITFGQGTRLEIK
notes: GC1008 IgG4 variant
no binding (tested: 50 nM): human TGFβ3 [4] | human TGFβ1 [5] | human TGFβ2 [6]

B10: I52H (antibody, V domains shown)
VH: QVQLVQSGAEVKKPGSSVKVSCKASGYTFSSNVISWVRQAPGQGLEWMGGVHPIVDIANYAQRFKGRVTITADESTSTTYMELSSLRSEDTAVYYCASTLGLVLDAMDYWGQGTLVTVSS
VL: ETVLTQSPGTLSLSPGERATLSCRASQSLGSSYLAWYQQKPGQAPRLLIYGASSRAPGIPDRFSGSGSGTDFTLTISRLEPEDFAVYYCQQYADSPITFGQGTRLEIK
notes: GC1008 IgG4 variant
no binding (tested: 50 nM): human TGFβ3 [4] | human TGFβ1 [5] | human TGFβ2 [6]

B11: I52K (antibody, V domains shown)
VH: QVQLVQSGAEVKKPGSSVKVSCKASGYTFSSNVISWVRQAPGQGLEWMGGVKPIVDIANYAQRFKGRVTITADESTSTTYMELSSLRSEDTAVYYCASTLGLVLDAMDYWGQGTLVTVSS
VL: ETVLTQSPGTLSLSPGERATLSCRASQSLGSSYLAWYQQKPGQAPRLLIYGASSRAPGIPDRFSGSGSGTDFTLTISRLEPEDFAVYYCQQYADSPITFGQGTRLEIK
notes: GC1008 IgG4 variant
no binding (tested: 50 nM): human TGFβ3 [4] | human TGFβ1 [5] | human TGFβ2 [6]

B12: L104R (antibody, V domains shown)
VH: QVQLVQSGAEVKKPGSSVKVSCKASGYTFSSNVISWVRQAPGQGLEWMGGVIPIVDIANYAQRFKGRVTITADESTSTTYMELSSLRSEDTAVYYCASTLGLVRDAMDYWGQGTLVTVSS
VL: ETVLTQSPGTLSLSPGERATLSCRASQSLGSSYLAWYQQKPGQAPRLLIYGASSRAPGIPDRFSGSGSGTDFTLTISRLEPEDFAVYYCQQYADSPITFGQGTRLEIK
notes: GC1008 IgG4 variant
no binding (tested: 50 nM): human TGFβ3 [1] | human TGFβ1 [2] | human TGFβ2 [3]

B13: I52S (antibody, V domains shown)
VH: QVQLVQSGAEVKKPGSSVKVSCKASGYTFSSNVISWVRQAPGQGLEWMGGVSPIVDIANYAQRFKGRVTITADESTSTTYMELSSLRSEDTAVYYCASTLGLVLDAMDYWGQGTLVTVSS
VL: ETVLTQSPGTLSLSPGERATLSCRASQSLGSSYLAWYQQKPGQAPRLLIYGASSRAPGIPDRFSGSGSGTDFTLTISRLEPEDFAVYYCQQYADSPITFGQGTRLEIK
notes: GC1008 IgG4 variant
no binding (tested: 50 nM): human TGFβ3 [4] | human TGFβ1 [5] | human TGFβ2 [6]

B14: I52R (antibody, V domains shown)
VH: QVQLVQSGAEVKKPGSSVKVSCKASGYTFSSNVISWVRQAPGQGLEWMGGVRPIVDIANYAQRFKGRVTITADESTSTTYMELSSLRSEDTAVYYCASTLGLVLDAMDYWGQGTLVTVSS
VL: ETVLTQSPGTLSLSPGERATLSCRASQSLGSSYLAWYQQKPGQAPRLLIYGASSRAPGIPDRFSGSGSGTDFTLTISRLEPEDFAVYYCQQYADSPITFGQGTRLEIK
notes: GC1008 IgG4 variant
no binding (tested: 50 nM): human TGFβ3 [4] | human TGFβ1 [5] | human TGFβ2 [6]

B15: I52N (antibody, V domains shown)
VH: QVQLVQSGAEVKKPGSSVKVSCKASGYTFSSNVISWVRQAPGQGLEWMGGVNPIVDIANYAQRFKGRVTITADESTSTTYMELSSLRSEDTAVYYCASTLGLVLDAMDYWGQGTLVTVSS
VL: ETVLTQSPGTLSLSPGERATLSCRASQSLGSSYLAWYQQKPGQAPRLLIYGASSRAPGIPDRFSGSGSGTDFTLTISRLEPEDFAVYYCQQYADSPITFGQGTRLEIK
notes: GC1008 IgG4 variant
no binding (tested: 50 nM): human TGFβ3 [4] | human TGFβ1 [5] | human TGFβ2 [6]
